Laboratory results from patent US20200087373A1 (UNIVERSITY OF COPENHAGEN, published 2020).
Ends that are not written are not given here. * marks the point of attachment. C16 diacid = O=C(O)CCCCCCCCCCCCCCC(=O)*; Stearoyl = CCCCCCCCCCCCCCCCCC(=O)*; Palmitoyl = CCCCCCCCCCCCCCCC(=O)*

T1: human GIP receptor (human, UniProt P48546 22-466)
T1 sequence (looked up): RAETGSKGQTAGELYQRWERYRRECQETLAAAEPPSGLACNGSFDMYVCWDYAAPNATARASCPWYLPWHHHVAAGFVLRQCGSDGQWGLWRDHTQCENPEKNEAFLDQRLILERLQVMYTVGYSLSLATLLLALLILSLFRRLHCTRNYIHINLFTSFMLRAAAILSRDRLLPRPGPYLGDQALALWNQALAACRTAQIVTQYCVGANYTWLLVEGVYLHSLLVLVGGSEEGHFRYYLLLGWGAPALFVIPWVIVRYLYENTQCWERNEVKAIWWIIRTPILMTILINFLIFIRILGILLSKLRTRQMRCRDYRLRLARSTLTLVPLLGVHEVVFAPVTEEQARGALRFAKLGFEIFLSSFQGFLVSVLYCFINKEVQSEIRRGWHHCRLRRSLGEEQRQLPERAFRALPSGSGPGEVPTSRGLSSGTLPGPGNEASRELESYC

B1: AT294 [hGIP(3-30)NH2[E3K]-C16diacid/3] (peptide)
peptide: K(C16 diacid)GTFISDYSIAMDKIHQQDFVNWLLAQK-NH2
modifications: N-terminus assumed
SMILES: CC[C@H](C)[C@H](NC(=O)[C@H](CO)NC(=O)[C@H](Cc1ccc(O)cc1)NC(=O)[C@H](CC(=O)O)NC(=O)[C@H](CO)NC(=O)[C@@H](NC(=O)[C@H](Cc1ccccc1)NC(=O)[C@@H](NC(=O)CNC(=O)[C@@H](N)CCCCNC(=O)CCCCCCCCCCCCCCC(=O)O)[C@@H](C)O)[C@@H](C)CC)C(=O)N[C@@H](C)C(=O)N[C@@H](CCSC)C(=O)N[C@@H](CC(=O)O)C(=O)N[C@@H](CCCCN)C(=O)N[C@H](C(=O)N[C@@H](Cc1c[nH]cn1)C(=O)N[C@@H](CCC(N)=O)C(=O)N[C@@H](CCC(N)=O)C(=O)N[C@@H](CC(=O)O)C(=O)N[C@@H](Cc1ccccc1)C(=O)N[C@H](C(=O)N[C@@H](CC(N)=O)C(=O)N[C@@H](Cc1c[nH]c2ccccc12)C(=O)N[C@@H](CC(C)C)C(=O)N[C@@H](CC(C)C)C(=O)N[C@@H](C)C(=O)N[C@@H](CCC(N)=O)C(=O)N[C@@H](CCCCN)C(N)=O)C(C)C)[C@@H](C)CC
B2: AT295 [hGIP(3-30)NH2[G4K]-C16diacid/4] (peptide)
peptide: EK(C16 diacid)TFISDYSIAMDKIHQQDFVNWLLAQK-NH2
modifications: N-terminus assumed
SMILES: CC[C@H](C)[C@H](NC(=O)[C@H](CO)NC(=O)[C@H](Cc1ccc(O)cc1)NC(=O)[C@H](CC(=O)O)NC(=O)[C@H](CO)NC(=O)[C@@H](NC(=O)[C@H](Cc1ccccc1)NC(=O)[C@@H](NC(=O)[C@H](CCCCNC(=O)CCCCCCCCCCCCCCC(=O)O)NC(=O)[C@@H](N)CCC(=O)O)[C@@H](C)O)[C@@H](C)CC)C(=O)N[C@@H](C)C(=O)N[C@@H](CCSC)C(=O)N[C@@H](CC(=O)O)C(=O)N[C@@H](CCCCN)C(=O)N[C@H](C(=O)N[C@@H](Cc1c[nH]cn1)C(=O)N[C@@H](CCC(N)=O)C(=O)N[C@@H](CCC(N)=O)C(=O)N[C@@H](CC(=O)O)C(=O)N[C@@H](Cc1ccccc1)C(=O)N[C@H](C(=O)N[C@@H](CC(N)=O)C(=O)N[C@@H](Cc1c[nH]c2ccccc12)C(=O)N[C@@H](CC(C)C)C(=O)N[C@@H](CC(C)C)C(=O)N[C@@H](C)C(=O)N[C@@H](CCC(N)=O)C(=O)N[C@@H](CCCCN)C(N)=O)C(C)C)[C@@H](C)CC
B3: AT296 [hGIP(3-30)NH2[T5K]-C16diacid/5] (peptide)
peptide: EGK(C16 diacid)FISDYSIAMDKIHQQDFVNWLLAQK-NH2
modifications: N-terminus assumed
SMILES: CC[C@H](C)[C@H](NC(=O)[C@H](CO)NC(=O)[C@H](Cc1ccc(O)cc1)NC(=O)[C@H](CC(=O)O)NC(=O)[C@H](CO)NC(=O)[C@@H](NC(=O)[C@H](Cc1ccccc1)NC(=O)[C@H](CCCCNC(=O)CCCCCCCCCCCCCCC(=O)O)NC(=O)CNC(=O)[C@@H](N)CCC(=O)O)[C@@H](C)CC)C(=O)N[C@@H](C)C(=O)N[C@@H](CCSC)C(=O)N[C@@H](CC(=O)O)C(=O)N[C@@H](CCCCN)C(=O)N[C@H](C(=O)N[C@@H](Cc1c[nH]cn1)C(=O)N[C@@H](CCC(N)=O)C(=O)N[C@@H](CCC(N)=O)C(=O)N[C@@H](CC(=O)O)C(=O)N[C@@H](Cc1ccccc1)C(=O)N[C@H](C(=O)N[C@@H](CC(N)=O)C(=O)N[C@@H](Cc1c[nH]c2ccccc12)C(=O)N[C@@H](CC(C)C)C(=O)N[C@@H](CC(C)C)C(=O)N[C@@H](C)C(=O)N[C@@H](CCC(N)=O)C(=O)N[C@@H](CCCCN)C(N)=O)C(C)C)[C@@H](C)CC
B4: AT297 [hGIP(3-30)NH2[F6K]-C16diacid/6] (peptide)
peptide: EGTKISDYSIAMDKIHQQDFVNWLLAQK
modifications: C16-diacid (1,16-hexadecanedioic acid) on Lys 6 (GIP numbering); C-terminal amide
B5: AT160 [hGIP(3-30)NH2[H18K]-C18/18] (peptide)
peptide: EGTFISDYSIAMDKIK(Stearoyl)QQDFVNWLLAQK-NH2
modifications: N-terminus assumed
SMILES: CCCCCCCCCCCCCCCCCC(=O)NCCCC[C@H](NC(=O)[C@@H](NC(=O)[C@H](CCCCN)NC(=O)[C@H](CC(=O)O)NC(=O)[C@H](CCSC)NC(=O)[C@H](C)NC(=O)[C@@H](NC(=O)[C@H](CO)NC(=O)[C@H](Cc1ccc(O)cc1)NC(=O)[C@H](CC(=O)O)NC(=O)[C@H](CO)NC(=O)[C@@H](NC(=O)[C@H](Cc1ccccc1)NC(=O)[C@@H](NC(=O)CNC(=O)[C@@H](N)CCC(=O)O)[C@@H](C)O)[C@@H](C)CC)[C@@H](C)CC)[C@@H](C)CC)C(=O)N[C@@H](CCC(N)=O)C(=O)N[C@@H](CCC(N)=O)C(=O)N[C@@H](CC(=O)O)C(=O)N[C@@H](Cc1ccccc1)C(=O)N[C@H](C(=O)N[C@@H](CC(N)=O)C(=O)N[C@@H](Cc1c[nH]c2ccccc12)C(=O)N[C@@H](CC(C)C)C(=O)N[C@@H](CC(C)C)C(=O)N[C@@H](C)C(=O)N[C@@H](CCC(N)=O)C(=O)N[C@@H](CCCCN)C(N)=O)C(C)C
B6: AT163 [hGIP(3-30)NH2[H18K]-C16/16] (peptide)
peptide: EGTFISDYSIAMDK(Palmitoyl)IKQQDFVNWLLAQK-NH2
modifications: N-terminus assumed
SMILES: CCCCCCCCCCCCCCCC(=O)NCCCC[C@H](NC(=O)[C@H](CC(=O)O)NC(=O)[C@H](CCSC)NC(=O)[C@H](C)NC(=O)[C@@H](NC(=O)[C@H](CO)NC(=O)[C@H](Cc1ccc(O)cc1)NC(=O)[C@H](CC(=O)O)NC(=O)[C@H](CO)NC(=O)[C@@H](NC(=O)[C@H](Cc1ccccc1)NC(=O)[C@@H](NC(=O)CNC(=O)[C@@H](N)CCC(=O)O)[C@@H](C)O)[C@@H](C)CC)[C@@H](C)CC)C(=O)N[C@H](C(=O)N[C@@H](CCCCN)C(=O)N[C@@H](CCC(N)=O)C(=O)N[C@@H](CCC(N)=O)C(=O)N[C@@H](CC(=O)O)C(=O)N[C@@H](Cc1ccccc1)C(=O)N[C@H](C(=O)N[C@@H](CC(N)=O)C(=O)N[C@@H](Cc1c[nH]c2ccccc12)C(=O)N[C@@H](CC(C)C)C(=O)N[C@@H](CC(C)C)C(=O)N[C@@H](C)C(=O)N[C@@H](CCC(N)=O)C(=O)N[C@@H](CCCCN)C(N)=O)C(C)C)[C@@H](C)CC

Molecular target: T1, human GIP receptor
Assay: cell-based or functional assay

Row | Binder | cAMP agonism, EC50 (log) [log M] | cAMP agonism, Emax [%] | cAMP agonism, nM (EC50) [nM] | cAMP antagonism, log (IC50) [log M] | cAMP antagonism, nM (IC50) [nM]
1 | B1 | -8.7 | 74 | 1.8 | -8.6 | 2.5
2 | B2 | -8.6 | 78.6 | 2.6 | -8.1 | 9.5
3 | B3 | -8.6 | 6.7 | 2.6 | -7.8 | 14
4 | B4 | -7 | 19 | 9 | -6.2 | 603
5 | B5 | -6 | 13 | 962 | -7.4 | 38
6 | B6 | – | 0 | – | -6.7 | 212
